From publication PMC9972960 come the findings set out here.

What is called stoichiometry N is the number of molecules, sites or subunits per partner or assembly.

In test [1] the target is purified vaccine protein with HA from influenza A/PR/8/1934 (H1N1), with the C-terminal foldon trimerization domain (influenza A/PR/8/1934 (H1N1) | T4 phage) (UniProt P03452). As to the kind of experiment: SEC.
Test [2] has the same target. In words: native gel or EMSA. (Mobility shift assays separate free from complexed probe on a gel.)

In the case of “purified vaccine protein with HA from influenza A/PR/8/1934 (H1N1), with the C-terminal foldon trimerization domain (from UniProt P03452)”, the stoichiometry N in test [1] and in test [2] was 3 each time.
